Laboratory results as given in patent US20240010750A1 (Bayer, published 2024).
Read-outs that look alike come from different tables or passages of the source.

T1: human alpha2-Antiplasmin (human, UniProt P08697 40-491)
T1 sequence: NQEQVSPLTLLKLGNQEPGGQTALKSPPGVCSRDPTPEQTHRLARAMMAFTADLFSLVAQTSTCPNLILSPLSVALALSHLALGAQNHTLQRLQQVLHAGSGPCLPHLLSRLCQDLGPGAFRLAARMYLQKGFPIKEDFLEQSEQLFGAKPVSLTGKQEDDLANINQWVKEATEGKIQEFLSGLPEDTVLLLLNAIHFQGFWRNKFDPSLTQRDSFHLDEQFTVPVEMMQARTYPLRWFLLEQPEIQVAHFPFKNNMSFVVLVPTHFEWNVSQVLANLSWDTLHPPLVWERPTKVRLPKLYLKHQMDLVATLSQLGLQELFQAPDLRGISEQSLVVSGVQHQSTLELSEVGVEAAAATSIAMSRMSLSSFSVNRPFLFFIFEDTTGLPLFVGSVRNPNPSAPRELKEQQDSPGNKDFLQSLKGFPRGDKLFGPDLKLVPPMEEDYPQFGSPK

T2: cynomolgus alpha2-Antiplasmin (cynomolgus (Macaca fascicularis), UniProt P08697 28-491 (human entry))
T2 construct: Made in house in the same way as the rabbit protein; also called cynomolgus A2AP; Macaca fascicularis A2AP
T2 chain: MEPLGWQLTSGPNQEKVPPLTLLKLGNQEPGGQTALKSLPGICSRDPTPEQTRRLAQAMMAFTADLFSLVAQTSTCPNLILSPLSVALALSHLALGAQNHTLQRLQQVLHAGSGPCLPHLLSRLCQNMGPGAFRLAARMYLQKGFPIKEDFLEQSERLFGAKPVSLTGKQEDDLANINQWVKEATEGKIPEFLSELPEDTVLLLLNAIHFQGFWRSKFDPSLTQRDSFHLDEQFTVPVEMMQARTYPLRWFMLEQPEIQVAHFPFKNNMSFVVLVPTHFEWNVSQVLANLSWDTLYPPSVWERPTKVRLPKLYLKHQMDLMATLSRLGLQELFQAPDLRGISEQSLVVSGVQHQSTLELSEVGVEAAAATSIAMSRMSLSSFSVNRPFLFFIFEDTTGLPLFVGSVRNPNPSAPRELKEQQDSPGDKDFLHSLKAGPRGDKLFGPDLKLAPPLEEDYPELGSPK

T3: rabbit alpha2-Antiplasmin (rabbit (Oryctolagus cuniculus))
T3 construct: Made in house in HEK293 cells, purified by Ni-IMAC and SEC (a His tag is implied but not described); also called rabbit A2AP; Oryctolagus cuniculus A2AP
T3 chain: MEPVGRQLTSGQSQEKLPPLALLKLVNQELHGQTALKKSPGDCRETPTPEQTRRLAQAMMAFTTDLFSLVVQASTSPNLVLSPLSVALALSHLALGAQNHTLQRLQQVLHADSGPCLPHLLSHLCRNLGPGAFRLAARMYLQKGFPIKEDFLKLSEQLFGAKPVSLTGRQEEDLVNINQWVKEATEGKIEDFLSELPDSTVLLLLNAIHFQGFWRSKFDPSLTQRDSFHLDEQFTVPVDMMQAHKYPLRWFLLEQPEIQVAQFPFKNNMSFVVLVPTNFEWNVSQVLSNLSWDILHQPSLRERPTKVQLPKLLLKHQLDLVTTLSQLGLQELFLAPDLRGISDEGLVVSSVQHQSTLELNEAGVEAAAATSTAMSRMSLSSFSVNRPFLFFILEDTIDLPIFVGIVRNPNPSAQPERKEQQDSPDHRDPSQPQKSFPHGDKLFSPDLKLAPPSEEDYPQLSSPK


Legend:
human alpha2-Antiplasmin [1] = molecular target: T1, human alpha2-Antiplasmin; experiment: cell-based or functional assay
human alpha2-Antiplasmin [2] = molecular target: T1, human alpha2-Antiplasmin; experiment: ELISA, coated antigen, 1st exp.
Protocol: (§1) A standard ELISA format was used for analyzing the binding affinity of Fabs of this invention to human and rabbit alpha-2-Antiplasmin, respectively. Antigens were coated to black 384 well Maxisorp microtiter plates (Nunc; catalogue number 460518), diluted to a concentration of 1 μg/ml in 1× Coating Buffer (Candor Bioscience; catalogue number 121125). Plates were incubated overnight at 4° C. After overnight incubation, plates were washed 2× with 50 μl/well using PBS+0.05% Tween 20. Following this, 50 μl/well of blocking buffer (Smart Block; Candor Bioscience; catalogue number 113500) was added and the plates were incubated for 1 hour at room temperature. Afterwards, plates were washed for 3× using […] PBS+0.05% Tween 20 buffer. Fabs of this invention were added at different concentrations in a final volume of 30 μl/well. Plates were incubated for 1 hour at room temperature. Following this incubation step, plates were washed for 3× using 50 μl/well of a PBS+0.05% Tween 20 buffer. For the detection of bound Fabs and full-length antibodies, the anti-Human Lambda Light Chains (Bound and Free)—Peroxidase antibody (Sigma; catalogue number A5175) was diluted by the factor of 1:10.000 in 10% Blocking Buffer. 30 μl/well of this diluted detection antibody was added and plates are incubated for 1 hour at room temperature. Following this incubation step, plates were washed for 3× using 50 μl/well of a PBS+0.05% Tween 20 buffer. As substrate, a mixture of 30 μl/well of 1:1000 diluted Amplex red (Invitrogen; catalogue number 12222; stock solution 10 mM in DMSO) and 1:10.000 of Hydrogen peroxide (Merck; catalogue number 107209; 30% stock solution) was added and the plates incubated for minutes in the dark.
(§2) For measurement, the Infinite f500 reader (Tecan) was used. Measurement mode: Fluorescence; Top reading; Ex 535 nm; Em 590 nm.
(§3) According to the methods described in Example 3 and Example 4, antibodies TPP-14323, TPP-14318, TPP-14314, TPP-14313, TPP-14308, TPP-14305, TPP-14303, TPP-14298, and TPP-14293 were tested for their ability to bind to and to block the activity of human alpha2-Antiplasmin in a dose-dependent manner. For each antibody, one dose response curve from two to three independent experiments performed in quadruplicate is shown as example in FIG. 7.1 to FIG. 7.18. (see Table 3.3)

human alpha2-Antiplasmin [3] = molecular target: T1, human alpha2-Antiplasmin; experiment: cell-based or functional assay; remark: listed apart in the source
human Plasmin = human Plasmin (human, UniProt P00747 97-580; P00747 581-810, limits assumed); experiment: cell-based or functional assay
Sequence of human Plasmin (P00747 97-580 limits assumed, chain 1 of 2): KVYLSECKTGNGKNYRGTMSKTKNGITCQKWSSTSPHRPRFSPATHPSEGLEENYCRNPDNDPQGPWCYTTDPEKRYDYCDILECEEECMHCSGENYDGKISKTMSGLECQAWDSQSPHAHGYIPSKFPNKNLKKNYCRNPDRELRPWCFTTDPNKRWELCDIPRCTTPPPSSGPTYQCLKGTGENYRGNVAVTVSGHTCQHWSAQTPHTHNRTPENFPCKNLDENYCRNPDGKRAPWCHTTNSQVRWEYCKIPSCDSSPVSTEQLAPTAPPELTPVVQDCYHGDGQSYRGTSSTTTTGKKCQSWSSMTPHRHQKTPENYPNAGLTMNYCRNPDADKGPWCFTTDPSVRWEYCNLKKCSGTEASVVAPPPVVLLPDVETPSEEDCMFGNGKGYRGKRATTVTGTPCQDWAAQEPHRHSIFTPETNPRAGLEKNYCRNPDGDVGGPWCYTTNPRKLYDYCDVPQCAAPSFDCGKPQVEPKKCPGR
Sequence of human Plasmin (P00747 581-810 limits assumed, chain 2 of 2): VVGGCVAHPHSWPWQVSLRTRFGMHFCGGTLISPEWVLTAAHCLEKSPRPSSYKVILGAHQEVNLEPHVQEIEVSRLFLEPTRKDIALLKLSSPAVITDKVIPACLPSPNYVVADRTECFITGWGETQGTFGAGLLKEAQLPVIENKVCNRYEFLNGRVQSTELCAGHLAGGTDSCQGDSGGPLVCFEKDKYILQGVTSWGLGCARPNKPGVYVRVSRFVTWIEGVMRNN

human alpha2-Antiplasmin [4] = molecular target: T1, human alpha2-Antiplasmin; experiment: ELISA, coated antigen, 3rd exp.
Protocol: as §1, §2, §3

human alpha2-Antiplasmin [5] = molecular target: T1, human alpha2-Antiplasmin; experiment: ELISA, coated antigen, 2nd exp.
Protocol: as §1, §2, §3

human alpha2-Antiplasmin [6] = molecular target: T1, human alpha2-Antiplasmin; experiment: cell-based or functional assay; remark: listed apart in the source
human alpha2-Antiplasmin [7] = molecular target: T1, human alpha2-Antiplasmin; experiment: SPR Biacore T200, antibody captured on protein G chip, A2AP as analyte, 25 C
Protocol: (§4) Binding assays were performed on a Biacore T200 instrument at 25° C. with a protein G sensor chip and assay buffer HBS-EP+. Antibodies were captured to ˜150 RU and analytes were used at concentrations between 1.56 and 200 nM for full kinetics. As interaction partner, alpha2-Antiplasmin from human, cynomolgus and rabbit was used. Regeneration was performed with glycine-HCl pH 1.5. Kinetic parameters were derived by fitting experimental sensorgrams to a 1:1 Langmuir binding model.

[8] = molecular target: T2, cynomolgus alpha2-Antiplasmin; experiment: as above
Protocol: as §4

[9] = molecular target: T3, rabbit alpha2-Antiplasmin; experiment: as above
Protocol: as §4

human alpha2-Antiplasmin [10] = molecular target: T1, human alpha2-Antiplasmin; experiment: cell-based or functional assay; remark: listed apart in the source
human alpha2-Antiplasmin [11] = molecular target: T1, human alpha2-Antiplasmin; experiment: ELISA (Example 3), human alpha2-Antiplasmin coated, RFU
Protocol: as §1, with “30 μl/well of this diluted detection antibody was added and plates are incubated for 1 hour at room temperature. Following this incubation step, plates were washed for 3× using 50 μl/well of a PBS+0.05% Tween 20 buffer. As substrate, a mixture of 30 μl/well of 1:1000 diluted Amplex red (Invitrogen; catalogue number 12222; stock solution 10 mM in DMSO) and 1:10.000 of Hydrogen peroxide (Merck; catalogue number 107209; 30% stock solution) was added and the plates incubated for minutes in the dark.” left out
as §2

human alpha2-Antiplasmin [12] = molecular target: T1, human alpha2-Antiplasmin; experiment: ELISA, coated antigen, quantified unpurified antibody, 2nd exp.
human alpha2-Antiplasmin [13] = molecular target: T1, human alpha2-Antiplasmin; experiment: cell-based or functional assay; remark: listed apart in the source
human alpha2-Antiplasmin [14] = molecular target: T1, human alpha2-Antiplasmin; experiment: ELISA, coated antigen, quantified unpurified antibody, 1st exp.
human alpha2-Antiplasmin [15] = molecular target: T1, human alpha2-Antiplasmin; experiment: cell-based or functional assay; remark: listed apart in the source
human alpha2-Antiplasmin [16] = molecular target: T1, human alpha2-Antiplasmin; experiment: ELISA, coated antigen, quantified unpurified antibody, 3rd exp.
Protocol: as §1, §2

human alpha2-Antiplasmin [17] = molecular target: T1, human alpha2-Antiplasmin; experiment: cell-based or functional assay; remark: listed apart in the source

Row | EC50 (human alpha2-Antiplasmin [2]) | function blocking activity [IC50 M], 1st exp. (human alpha2-Antiplasmin [3]) | function blocking activity [IC50 M], 2nd exp. (human alpha2-Antiplasmin [3]) | function blocking activity [IC50 M], 3rd exp. (human alpha2-Antiplasmin [3]) | IC50 [M], inhibition of plasmin proteolytic activity (human Plasmin) | EC50 (human alpha2-Antiplasmin [4]) | EC50 (human alpha2-Antiplasmin [5]) | Kd (human alpha2-Antiplasmin [7]) | Kd [8] | Kd [9] | function blocking activity [IC50 M], 1st exp. (human alpha2-Antiplasmin [10]) | function blocking activity [IC50 M], 2nd exp. (human alpha2-Antiplasmin [10]) | EC50 (read off the curve) (human alpha2-Antiplasmin [11]) | EC50 (human alpha2-Antiplasmin [12]) | EC50 (human alpha2-Antiplasmin [14]) | IC50, A2AP function blocking assay (Example 10) (human alpha2-Antiplasmin [15]) | Binder | further results
1 | – | – | – | – | > 1e-05 M | – | – | 7.9 nM | 5.8 nM | 9.7 nM | 280 pM | 390 pM | ~200 pM | 0.36 nM | 0.18 nM | 1200 pM | TPP-17048 hIgG1 (antibody, V domains shown, Germline variant of TPP-14308) VH: EVQLLESGGGLVQPGGSLRLSCAASGFTFSDYAMSWVRQAPGKGLEWVSAIGTGGSTYYADSVKGRFTISRDNSKNTLYLQMNSLRAEDTAVYYCAREGYDSSGYYHLDYWGQGTLVTVSS VL: QSVLTQPPSASGTPGQRVTISCTGSSSNIGATYDVHWYQQLPGTAPKLLIYSNNQRPSGVPDRFSGSKSGTSASLAISGLRSEDEADYYCAAWDWSLSGWVFGGGTKLTVLG | function blocking activity [IC50 M], 3rd exp. (human alpha2-Antiplasmin [10]): 300 pM; EC50 (read off the curve); function blocking assay (Example 4), RFU of plasmin substrate cleavage (human alpha2-Antiplasmin [13]): ~300 pM
2 | – | – | – | – | > 1e-05 M | – | – | 14 nM | 11 nM | 49 nM | 400 pM | 500 pM | ~80 pM | 0.12 nM | 0.085 nM | 140 pM | TPP-17045 hIgG1 (antibody, V domains shown, Germline variant of TPP-14308) VH: EVQLLESGGGLVQPGGSLRLSCAASGFTFDDYAMSWVRQAPGKGLEWVSAIGTGGGTYYADSVKGRFTISRDNSKNTLYLQMNSLRAEDTAVYYCAKEGYDSSGYYHLDYWGQGTLVTVSS VL: QSVLTQPPSASGTPGQRVTISCTGSSSNIGATYDVHWYQQLPGTAPKLLIYSNNQRPSGVPDRFSGSKSGTSASLAISGLRSEDEADYYCAAWDWSLSGWVFGGGTKLTVLG | EC50 (human alpha2-Antiplasmin [16]): 0.11 nM; EC50 (read off the curve); function blocking assay (Example 4), RFU of plasmin substrate cleavage (human alpha2-Antiplasmin [17]): ~400 pM

Further lines, the binder ahead of its results:

Row | Binder | EC50 (human alpha2-Antiplasmin [2]) | function blocking activity [IC50 M], 1st exp. (human alpha2-Antiplasmin [3]) | function blocking activity [IC50 M], 2nd exp. (human alpha2-Antiplasmin [3]) | function blocking activity [IC50 M], 3rd exp. (human alpha2-Antiplasmin [3]) | IC50 [M], inhibition of plasmin proteolytic activity (human Plasmin) | EC50 (human alpha2-Antiplasmin [4]) | EC50 (human alpha2-Antiplasmin [5]) | Kd (human alpha2-Antiplasmin [7]) | Kd [8] | Kd [9] | function blocking activity [IC50 M], 1st exp. (human alpha2-Antiplasmin [10]) | function blocking activity [IC50 M], 2nd exp. (human alpha2-Antiplasmin [10]) | EC50 (read off the curve) (human alpha2-Antiplasmin [11]) | EC50 (human alpha2-Antiplasmin [12]) | EC50 (human alpha2-Antiplasmin [14]) | IC50, A2AP function blocking assay (Example 10) (human alpha2-Antiplasmin [15]) | further results
3 | TPP-14318 hIgG1 (antibody, V domains shown) VH: EVQLLESGGGLVQPGGSLRLSCAASGFTFDDYAMSWVRQAPGKGLEWVSAIGTGGGTYYADSVKGRFTISRDNSKNTLYLQMNSLRAEDTAVYYCAREYYDSSGYYHLEYWGQGTLVTVSS VL: QSVLTQPPSASGTPGQRVTISCTGSSSNIGATYDVHWYQQLPGTAPKLLIYSNNQRPSGVPDRFSGSKSGTSASLAISGLRSEDEADYYCAAWDWSLSGWVFGGGTKLTVLG | 5.7 nM | 20 nM | 25 nM | 22 nM | > 1e-05 M | 61 nM | 59 nM | – | – | – | – | – | – | – | – | – | EC50 (read off the curve); function blocking assay (Example 4), RFU of plasmin substrate cleavage (human alpha2-Antiplasmin [1]): ~20 nM
4 | TPP-14323 hIgG1 (antibody, V domains shown) VH: EVQLLESGGGLVQPGGSLRLSCAASGFTFDDYAMSWVRQAPGKGLEWVSAIGTGGGTYYADSVKGRFTISRDNSKNTLYLQMNSLRAEDTAVYYCAREYYDSSGYYHLTYWGQGTLVTVSS VL: QSVLTQPPSASGTPGQRVTISCTGSSSNIGATYDVHWYQQLPGTAPKLLIYSNNQRPSGVPDRFSGSKSGTSASLAISGLRSEDEADYYCAAWDWSLSGWVFGGGTKLTVLG | 7 nM | 20 nM | 20 nM | 29 nM | > 1e-05 M | 71 nM | 73 nM | – | – | – | – | – | – | – | – | – | EC50 (read off the curve); function blocking assay (Example 4), RFU of plasmin substrate cleavage (human alpha2-Antiplasmin [6]): ~20 nM
